Measurements as given in the supplement of paper PMC12042874.
± gives the uncertainty stated by the source.

Assay: amyloid nucleation score (Sup35N fusion, yeast selection) (log enrichment); library NNK3; higher = more nucleation; inactive = no reads after selection
Method in brief: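 Output and input plasmid inserts were sequenced by Illumina after psi-negative yeast carrying Sup35N fused to peptides of 20 random codons had been induced 24 hours with 100 μM copper sulfate and grown 7 days at 30°C on medium lacking adenine and uracil. The nucleation score is the DiMSum log enrichment of output over input reads, centred on the mode score of non-aggregating sequences. Sequences with under 100 input reads were excluded.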

| Substance | amyloid nucleation score |
| --- | --- |
| ECATTVGNAFRRSGVQVFAM | inactive |
| ECEWDMVH | inactive |
| ECHRGDHINDYVRADNRFSL | inactive |
| ECPAALLKKIVPYKKLHGRM | inactive |
| EDHFSLHACVSSGTLSKVVY | inactive |
| EDIGGCECRYSIKDVY | inactive |
| EDLMLVQF | inactive |
| EDYLFHLLRDPRRTGWLIWF | inactive |
| EEMVSDRVRMLVTINHR | 0.661 ± 0.27 |
| EEVAGSTYIISSVVVYSRAG | 1.57 ± 0.14 |
| EFLESMNFVVTFLRWIQWTN | inactive |
| EFMILDLCMG | inactive |
| EFNNFYFCFFTV | 2.71 ± 0.064 |
| EFQNISWYTKLEGEYCGEMV | inactive |
| EGILPYLRYLFRNLSVGCCW | inactive |
| EGTKEF | inactive |
| EGTRLTSYM | inactive |
| EHGMVENRQRRFCLDWWDGM | inactive |
| EHVWHRCTKVN | inactive |
| EIFVFTM | inactive |
| EIGYYFNFKRLGAS | inactive |
| EIIFLS | inactive |
| EIRKQHCCHS | inactive |
| EIRMRMIKRFVYD | 1.16 ± 0.17 |

| Substance | amyloid nucleation score |
| --- | --- |
| EIVYCPWLQSWRA | inactive |
| EKDISAAMRMHGR | -0.315 ± 0.9 |
| EKECRTWHHVDGSLVESCYY | inactive |
| ELDCELMIALFLLWIVHANG | -0.657 ± 0.93 |
| ELIAIRRSNFHKKFLLNLYC | inactive |
| ELISGLLRVGLDLKKAVSFD | inactive |
| ELISRMSFRSLCLAFFISVC | inactive |
| ELLWNLRGNFDIDLGSFIRT | inactive |
| ELNIN | inactive |
| ELNRDDCEGSSATPQRDFNV | inactive |
| ELNTFKSTQIHWGIGDSSQE | 0.34 ± 0.31 |
| ELRQMTRVSVLASYTWSTTL | -0.014 ± 0.46 |
| ELRSIR | inactive |
| ELVCVA | inactive |
| ELYVMLGDGAFVRAIKDYVS | inactive |
| EMCSA | inactive |
| EMSAMRCILLMRVDPICSLS | inactive |
| ENLLISKRCINGMA | inactive |
| ENLLNMFWMFPLWYLGFNLG | inactive |
| ENTCYRVGALIAAFTSFKLW | inactive |
| ENTTMVGHMGYSLMFSYK | 1.25 ± 0.12 |
| ENVPLNAAYCSL | inactive |
| EPNRVLMKVQYRNSPCYTRR | inactive |
| EPVFCMWLDMGLGPNDCRMA | inactive |

| Substance | amyloid nucleation score |
| --- | --- |
| EQLISTSPLCVFIGFLVVLY | inactive |
| ERFLIPSDLNYKYA | inactive |
| ERFNPDEVCE | inactive |
| ERFRGMDRHVGVVWYDFV | inactive |
| ERLSMLVPYISDRYWLSDVN | inactive |
| ESFPEFVEVGICR | inactive |
| ESRMDRCCPSFGMCSLRYQK | inactive |
| ESRVPRSIKDSL | inactive |
| ESTYVDGRNTVNDYCPNSTI | inactive |
| ESYINLDIHNYIKTIILSLA | inactive |
| ETGMLCSGYCKGVCARDDPG | inactive |
| ETRFWNLIHADYIRMIGAGF | inactive |
| ETYKITLRTCLLATAGLREF | inactive |
| EVCFIRLLLLYCR | inactive |
| EVCNVVTCGNLFKVTIYNSQ | 2.43 ± 0.068 |
| EVVITLANAEGPAEQEF | inactive |
| EVVPCCF | inactive |
| EWLGNCRNDCVMWLCYNMAS | inactive |
| EWSLKIVTMNMASWM | inactive |
| EYADTEKVASNVLFFSRLAG | inactive |
| EYENLYLRVQFSYMLLFLVM | -1.33 ± 1.8 |
| EYGSATVVWNHYFSPWVRFF | -0.213 ± 0.9 |
| EYNPTYYFYRTFMAFFLKMI | inactive |
| EYRGKIDVYYLIGQNYSVSC | 0.621 ± 0.27 |

| Substance | amyloid nucleation score |
| --- | --- |
| EYSFSLWSVSPAYTHITYGG | -0.192 ± 0.71 |
| FAAAFDRGQGKS | inactive |
| FADVGTEFSCQEVNMKTHPS | inactive |
| FAEYISQ | 0.293 ± 0.23 |
| FAICSYANAEVSWKDGESAY | inactive |
| FASIRSRTRDRVSYVTPSFL | inactive |
| FASTVCEIPSFPWTKPRIMV | inactive |
| FASVFVMN | inactive |
| FAYLF | inactive |
| FAYLFPCMLLPRSLFAFRIN | inactive |
| FCCLEWNFIFNTSGHVSNNV | 3.31 ± 0.079 |
| FCDNQWRHKPTRVTIFFE | inactive |
| FCFSGRMTYHFTTWFIKRRS | inactive |
| FCGKLSCCFIRLAELFLVGK | inactive |
| FCIQSVFCCT | 2.88 ± 0.071 |
| FCMMKRSFCPDLNKLATDLV | inactive |
| FCPPADGRVTGTCDLFLTNS | inactive |
| FCSPSFYFGADGDTT | 1.99 ± 0.058 |
| FCVIMSM | inactive |
| FCYSDLNYRWICYSRDVESS | inactive |
| FDDVGSNSLHCIMMHELLGV | inactive |
| FDDYLKSYFKQYSNDHVG | inactive |
| FDGFGMDNIWKTFRNPHLMG | inactive |
| FDLWNIILVYIPVNACC | 0.735 ± 0.11 |

| Substance | amyloid nucleation score |
| --- | --- |
| FDNKFKHSYYDTLAA | inactive |
| FDNVISILPPYFTSFSG | inactive |
| FDRAFYNHWFSCGFPEGWHT | 0.501 ± 0.17 |
| FDRDWDMFFVRIVSQCGMLW | inactive |
| FDTFTMTEDSNPEKSECGLK | inactive |
| FDVELALWC | inactive |
| FEFKSIGNRLGSYTQASWFA | inactive |
| FELPMHTGV | inactive |
| FELRGTLGG | 0.026 ± 0.37 |
| FELYLQLN | 0.478 ± 0.38 |
| FEQNVGGLYWNKWSWGNLMR | inactive |
| FFCSGS | inactive |
| FFETRKYCGKEWFSGMLDMQ | inactive |
| FFLAASPISRNWWSSSLGHS | inactive |
| FFLIDYIYWVGIFNYSLILV | inactive |
| FFLYAVLLFTLLPSVLASGN | inactive |
| FFPKWFCMTLLINDVGNHDM | 0.921 ± 0.25 |
| FFRFRKCAM | inactive |
| FFRSQKWKSAYMLDNGHSNS | inactive |
| FFSSPFMFPASGATVPQRFQ | inactive |
| FFTSTLLSRPNVPNIYSISR | inactive |
| FFVYHTILRLPNGAGLRCGP | inactive |
